In article PMC4574351, “Tubulin cofactors and Arl2 are cage-like chaperones that regulate the soluble αβ-tubulin pool for microtubule dynamics” (eLife, 2015):
Each block holds one binder with its values, some of them ahead of it.

Assays:
[1] = target: TBC-DEG:αβ-tubulin complex (S. cerevisiae | porcine) (UniProt P40987)
[2] = target: TBC-DEG:αβ-tubulin complex (S. cerevisiae | porcine) (UniProt P40987); remark: listed apart in the source
[3] = target: TBC-DEG:αβ-tubulin complex (S. cerevisiae | porcine) (UniProt P40987); experiment: SEC-MALS; WTC-03S5 column; purified TBC-DEG (subunits co-expressed and co-purified), αβ-tubulin, TBCC and their complexes; ternary complex with GDP·ALFx (wild type) or GTP (Q73L)
[4] = target: T1, Tubulin cofactor D (TBCD), S. cerevisiae Cin1p (S. cerevisiae), P40987; experiment: as above; conditions: remark: other sources report otherwise
T1 chain: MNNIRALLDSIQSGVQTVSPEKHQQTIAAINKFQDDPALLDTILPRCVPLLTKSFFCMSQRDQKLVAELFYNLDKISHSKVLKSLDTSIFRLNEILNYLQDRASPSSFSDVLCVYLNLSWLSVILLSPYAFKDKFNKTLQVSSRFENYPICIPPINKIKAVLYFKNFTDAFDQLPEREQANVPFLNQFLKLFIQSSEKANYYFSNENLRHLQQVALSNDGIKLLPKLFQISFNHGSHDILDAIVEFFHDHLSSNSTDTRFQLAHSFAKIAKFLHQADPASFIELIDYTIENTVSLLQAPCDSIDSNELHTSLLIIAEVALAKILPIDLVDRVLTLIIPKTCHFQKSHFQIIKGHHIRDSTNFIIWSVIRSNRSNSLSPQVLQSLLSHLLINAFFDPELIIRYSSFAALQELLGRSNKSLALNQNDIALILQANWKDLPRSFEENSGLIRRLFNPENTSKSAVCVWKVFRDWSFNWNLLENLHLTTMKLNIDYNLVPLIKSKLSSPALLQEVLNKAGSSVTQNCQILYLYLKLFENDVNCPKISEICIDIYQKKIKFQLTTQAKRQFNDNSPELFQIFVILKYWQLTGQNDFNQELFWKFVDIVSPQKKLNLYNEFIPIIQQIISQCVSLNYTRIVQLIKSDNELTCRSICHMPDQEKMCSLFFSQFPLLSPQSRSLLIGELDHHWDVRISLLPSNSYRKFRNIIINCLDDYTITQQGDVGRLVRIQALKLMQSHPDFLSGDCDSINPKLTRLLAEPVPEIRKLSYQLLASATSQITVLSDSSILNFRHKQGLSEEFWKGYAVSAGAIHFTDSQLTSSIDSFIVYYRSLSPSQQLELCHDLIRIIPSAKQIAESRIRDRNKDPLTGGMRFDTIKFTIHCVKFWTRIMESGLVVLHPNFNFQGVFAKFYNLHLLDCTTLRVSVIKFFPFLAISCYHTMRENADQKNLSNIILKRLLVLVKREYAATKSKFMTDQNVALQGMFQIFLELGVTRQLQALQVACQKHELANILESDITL

steady-state GTP hydrolysis kcat, 1 μM TBC-DEG:1 μM TBCC-Cterm:1 μM αβ-tub [1]: 18800 M⁻¹ s⁻¹
B1: TBCC C-terminal β-helix domain (residues 100-267) (domain or fragment)
chain: YTTTLKKHYVLEKGDSAFENLEFCTVTSTTDYSGNSALSGSLCFRNITKCVINLQRIFFQTGSIFITDCTDSIIFLRSPSDKDFQIRLRDLKNCKILIEKLSPSIDCKQVVIIENCHKCIFNASTRDHLIIQDFSNPFQSEETEDNSAFAFEDFDICNKDTMQLFRAY

steady-state GTP hydrolysis kcat (malachite green), 1 μM TBC-DEG:1 μM TBCC:1 μM αβ-tub [1]: 31300 M⁻¹ s⁻¹
steady-state GTP hydrolysis kcat, equimolar αβ-tubulin and TBCC added to TBC-DEG (number as in the text) [2]: 0.0308 s⁻¹
stoichiometry N [3]: 1
B2: Tubulin cofactor C (TBCC), S. cerevisiae Cin2p (natural protein)
chain: MDFTAKIKELERELSETSDYKTLQKKTISLRSELNTLSHSLTSYEKEHFSNDIENVLKSINAKLSESKGKKRLFSFKQKNSSSAVHKNVERTELANAPAYTTTLKKHYVLEKGDSAFENLEFCTVTSTTDYSGNSALSGSLCFRNITKCVINLQRIFFQTGSIFITDCTDSIIFLRSPSDKDFQIRLRDLKNCKILIEKLSPSIDCKQVVIIENCHKCIFNASTRDHLIIQDFSNPFQSEETEDNSAFAFEDFDICNKDTMQLFRAYL

stoichiometry N [4]: 1
B3: Tubulin cofactor E (TBCE), S. cerevisiae Pac2p, P39937 1-518 (natural protein)
chain: MTYEIGDRLKIGGYFCTIKFIGVIKPWPSVKAYGVEWDDHSRGKHSGTIDDIHYFDVQIPNSGSFLKESKIKSPGVRRITFYEALSEKYGGSSNNINDLSIGNKRVEGLGFDELNARNKNYKKLRKIALRDSDVAILFQNQDELNRVIQNCVNVKDLDLSLNLFTNINSLCEFIEPLKNLESLNISQNKLLSGWDNLKEYDLSHIKTLRLSSCGLSYKHIGKLLKSFRTLKMLDLSYNNLTSAGIQNFENEIPCTLEELNISGNNLISFPLFPKNLTLKGLNVSNNQISRAPSIAIYSVESLDITDNKFKERSLIDDLNKTFPSLKNIHLSGNEFNYNGNYINVEEQATFYEVLARFDRVMVLNGSICDVKTRREAEMFFVSKVMNNELSYDTNLPRWSSLIKSYEIDMSKLSFNNERETRQSLVLKIKIRAGKKPSSDLDYWVLPSFTVRYVKSVICRKLNFDILNVKLFHENSEGMINEIKYNFRPISDFNVVNGDIIHVSSPVNNKSIQKVNSPS
